Experimental findings from patent publication US20200317768A1 (published 2020) are described below.

Substitutions are numbered along the chain they refer to.

T1: human FcγRIIb extracellular domain, C-terminal His-tag (human, UniProt P31994 43-217)
T1 construct: also called FcgRIIb (human); not shown: His-tag added to C-terminus
T1 sequence: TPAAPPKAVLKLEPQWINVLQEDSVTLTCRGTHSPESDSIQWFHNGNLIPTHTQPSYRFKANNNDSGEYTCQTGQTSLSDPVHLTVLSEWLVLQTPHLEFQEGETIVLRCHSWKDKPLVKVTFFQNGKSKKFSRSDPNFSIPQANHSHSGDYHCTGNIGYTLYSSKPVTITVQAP

T2: cynomolgus monkey FcγRIIa1 extracellular domain, C-terminal His-tag (cynomolgus monkey)
T2 construct: also called cyno FcγRIIa1; cynoFcgRIIa1; not shown: His-tag added to C-terminus
T2 chain: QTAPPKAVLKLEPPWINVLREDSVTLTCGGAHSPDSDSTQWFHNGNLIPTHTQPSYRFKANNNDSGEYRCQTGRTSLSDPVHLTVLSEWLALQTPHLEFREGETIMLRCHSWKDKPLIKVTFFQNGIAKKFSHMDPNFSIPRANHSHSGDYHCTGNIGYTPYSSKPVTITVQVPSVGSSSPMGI

T3: cynomolgus monkey FcγRIIb extracellular domain, C-terminal His-tag (cynomolgus monkey)
T3 construct: also called cyno FcγRIIb; cynoFcγRIIb; not shown: His-tag added to C-terminus
T3 chain: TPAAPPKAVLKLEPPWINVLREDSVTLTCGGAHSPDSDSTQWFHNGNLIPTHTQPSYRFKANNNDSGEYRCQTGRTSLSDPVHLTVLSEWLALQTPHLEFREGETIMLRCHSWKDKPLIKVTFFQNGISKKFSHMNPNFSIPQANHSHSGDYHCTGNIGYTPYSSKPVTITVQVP

T4: human FcγRIIaR extracellular domain, C-terminal His-tag (human, UniProt P12318 34-217)
T4 construct: also called human FcγRIIa (type R); FcgRIIaR; not shown: His-tag added to C-terminus
T4 chain: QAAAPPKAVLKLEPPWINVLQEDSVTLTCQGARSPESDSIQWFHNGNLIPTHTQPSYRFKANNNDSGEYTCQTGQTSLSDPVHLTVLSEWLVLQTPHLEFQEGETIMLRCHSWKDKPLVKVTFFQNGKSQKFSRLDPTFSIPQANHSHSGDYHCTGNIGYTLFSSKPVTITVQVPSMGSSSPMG

T5: cynomolgus monkey FcγRIIa3 extracellular domain, C-terminal His-tag (cynomolgus monkey)
T5 construct: also called cyno FcγRIIa3; cynoFcgRIIa3; not shown: His-tag added to C-terminus
T5 chain: T2 chain with P95T, T121A, A128S, H133P, D135N

T6: human FcγRIIaH extracellular domain, C-terminal His-tag (human, UniProt P12318 34-217)
T6 construct: also called human FcγRIIa (type H); FcgRIIaH; not shown: His-tag added to C-terminus
T6 sequence: T4 chain with R134H

T7: cynomolgus monkey FcγRIIa2 extracellular domain, C-terminal His-tag (cynomolgus monkey)
T7 construct: also called cyno FcγRIIa2; cynoFcgRIIa2; not shown: His-tag added to C-terminus
T7 chain: T2 chain with P95T, T121A, I127K, A128S, K130N, D135N, R142Q

B1: M103205H795-MY209/M103202L889-SK1 (antibody, human IgG1, kappa)
heavy: QVTLKESGPVLVKPTETLTLTCTVSGIDLSHDDISWVRQAPGKGLEWVGIISYAGSTYYASWAKGRLTISKDTSKNQVVLTMTNMDPVDTATYYCARGVPAYSHGGDLWGQGTLVTVSSASTKGPSVFPLAPSSKSTSGGTAALGCLVKDYFPEPVTVSWNSGALTSGVHTFPAVLQSSGLYSLSSVVTVPSSSLGTQTYICNVNHKPSNTKVDKKVEPKSCDKTHTCPPCPAPELLNGPSVFLFPPKPKDTLMISRTPEVTCVVVDVSDEDPEVKFNWYVDGVEVHNAKTKPREELYNSTYRVVSVLTVLHQDWLNGKEYKCKVSNTALPKPIEKTISKAKGQPREPQVYTLPPSREEMTKNQVSLTCLVKGFYPSDIAVEWESNGQPENNYKTTPPVLDSDGSFFLYSKLTVDKSRWQQGNVFSCSVMHEALHNHYTQKSLSLSP
light: DIVMTQSPATLSLSPGERATLSCTSSQSVYHANWLSWFQQKPGQPPKLLIYWASTLAYGVPSRFSGSGSGTDFTLTISSLQPEDAATYYCAGGYGGGRYAFGQGTKVEIKRTVAAPSVFIFPPSDEQLKSGTASVVCLLNNFYPREAKVQWKVDNALQSGNSQESVTEQDSKDSTYSLSSTLTLSKADYEKHKVYACEVTHQGLSSPVTKSFNRGEC
B2: M103205H795-MY227/M103202L889-SK1 (antibody, human IgG1, kappa)
heavy: B1 heavy with N238G, G239Y, L297Q, T328K, P398K
light: B1 light
B3: M103205H795-MY219/M103202L889-SK1 (antibody, human IgG1, kappa)
heavy: B1 heavy with N238G, G239Y, L297Q, T328K
light: B1 light
B4: M103205H795-MY272/M103202L889-SK1 (antibody, human IgG1, kappa)
heavy: B1 heavy with N238Q, L297Q, T328K, P398K
light: B1 light
B5: M103205H795-MY271/M103202L889-SK1 (antibody, human IgG1, kappa)
heavy: B1 heavy with N238V, L297Q, T328K, P398K
light: B1 light
B6: M103205H795-MY269/M103202L889-SK1 (antibody, human IgG1, kappa)
heavy: B1 heavy with N238M, L297Q, T328K, P398K
light: B1 light
B7: M103205H795-MY270/M103202L889-SK1 (antibody, human IgG1, kappa)
heavy: B1 heavy with N238H, L297Q, T328K, P398K
light: B1 light
B8: M103205H795-MY273/M103202L889-SK1 (antibody, human IgG1, kappa)
heavy: B1 heavy with N238L, L297Q, T328K, P398K
light: B1 light
B9: M103205H795-MY274/M103202L889-SK1 (antibody, human IgG1, kappa)
heavy: B1 heavy with N238T, L297Q, T328K, P398K
light: B1 light
B10: M103205H795-MY242/M103202L889-SK1 (antibody, human IgG1, kappa)
heavy: B1 heavy with N238G, P240I, L297Q, T328K, P398K
light: B1 light
B11: M103205H795-MY229/M103202L889-SK1 (antibody, human IgG1, kappa)
heavy: B1 heavy with N238G, G239Y, T328K, P398K
light: B1 light
B12: M103205H795-MY213/M103202L889-SK1 (antibody, human IgG1, kappa)
heavy: B1 heavy with L297Q, T328K, P398K
light: B1 light

The first assay addresses T1, human FcγRIIb extracellular domain, …. The experiment in a line: SPR (Biacore), antibody captured, FcgR analyte, 25 C. In general terms: In SPR one partner is held on a chip, and binding of the other changes the refractive index at the surface.
By Kd is commonly meant the free concentration of one partner at which half of the binding sites on the other are occupied at equilibrium, for simple one-to-one binding. As for B1, binding was put at a Kd of 500 nM.

Consider B2, for which the Kd turned out to be 130 nM.

B3 gave a Kd of 340 nM.

B4 showed a dissociation constant Kd of 1200 nM.

The molecule B5 gave a Kd of 2100 nM.

B6 returned a Kd of 2100 nM.

Regarding B7, the equilibrium dissociation constant (Kd) was determined as 2500 nM.

For B8, the dissociation constant Kd turned out to be 3000 nM.

For B9, binding was put at a Kd of 950 nM.

Take B10: the Kd amounted to 1900 nM.

The molecule B11 came in with a Kd of 150 nM.

Regarding B12, the equilibrium dissociation constant (Kd) was determined as 360 nM.

The target of the next assay is T2, cynomolgus monkey FcγRIIa1 …. Described as above.
As to B1, the Kd turned out to be 630 nM.

B2 had a Kd of 1900 nM.

In turn, B3 came in with an equilibrium dissociation constant (Kd) of 3500 nM.

B4 yielded a Kd of 1900 nM.

For the molecule B5, binding was characterised by a dissociation constant (Kd) of 760 nM.

Turning to B6, binding was characterised by a dissociation constant (Kd) of 2300 nM.

B7 returned a dissociation constant (Kd) of 1800 nM.

In turn, B8 displayed a Kd of 3700 nM.

B9 came in with a Kd of 830 nM.

Take B10: the Kd turned out to be 4500 nM.

Consider B11, for which binding was put at a Kd of 1500 nM.

Consider B12, for which the Kd stood at 530 nM.

In the next assay the target is T3, cynomolgus monkey FcγRIIb extracellular …. The description is as above.
The molecule B1 registered a Kd of 190 nM.

Molecule B2 showed a Kd of 510 nM.

As to B3, binding was put at a Kd of 1300 nM.

B4 yielded a Kd of 430 nM.

Regarding B5, binding was characterised by a dissociation constant (Kd) of 190 nM.

In turn, B6 yielded a Kd of 350 nM.

For B7, the equilibrium dissociation constant (Kd) amounted to 530 nM.

Molecule B8 returned a Kd of 1200 nM.

B9 registered a dissociation constant Kd of 230 nM.

Molecule B10 yielded a Kd of 1100 nM.

The molecule B11 returned a dissociation constant (Kd) of 470 nM.

The molecule B12 showed a Kd of 160 nM.

The target of the next assay is T4, human FcγRIIaR extracellular domain, …. The assay is described as above.
Consider B1, for which the affinity, expressed as Kd, was 830 nM.

B2 displayed a dissociation constant (Kd) of 62 nM.

On to B3, for which the equilibrium dissociation constant (Kd) is 160 nM.

Regarding B4, the equilibrium dissociation constant (Kd) came to 250 nM.

As to B5, binding was put at a Kd of 2300 nM.

In turn, B6 had a Kd of 720 nM.

B7 showed a dissociation constant (Kd) of 370 nM.

On to B8, for which the dissociation constant Kd amounted to 1000 nM.

Turning to B9, the Kd worked out at 170 nM.

For B10, the Kd came out at 690 nM.

B11 registered a Kd of 81 nM.

As to B12, the Kd turned out to be 630 nM.

The target in the next assay is T8, cynomolgus monkey FcγRIIIaS extracellular domain, C-terminal His-tag (cynomolgus monkey, UniProt A3RFZ7 21-206 (rhesus entry)).
T8 construct: also called cyno FcγRIIIaS; cynoFcγRIIIaS; not shown: His-tag added to C-terminus
T8 sequence (A3RFZ7 21-206): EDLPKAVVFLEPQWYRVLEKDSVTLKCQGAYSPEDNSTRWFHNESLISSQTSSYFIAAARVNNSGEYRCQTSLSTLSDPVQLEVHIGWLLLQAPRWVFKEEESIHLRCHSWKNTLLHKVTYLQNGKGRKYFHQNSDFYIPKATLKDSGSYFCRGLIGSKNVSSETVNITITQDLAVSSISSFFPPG
The description is as above.
On to B1, for which the Kd is 2200 nM.

B2: the dissociation constant (Kd) amounted to 3900 nM.

As for B3, the dissociation constant (Kd) was found to be 6200 nM.

Molecule B4 showed a Kd of 290 nM.

As for B5, the affinity, expressed as Kd, was 870 nM.

Take B6: binding was characterised by a dissociation constant (Kd) of 220 nM.

With B7, the equilibrium dissociation constant (Kd) worked out at 1100 nM.

B8 displayed a Kd of 1700 nM.

In turn, B9 registered a Kd of 670 nM.

For the molecule B10, the Kd turned out to be 990 nM.

Molecule B11 yielded an equilibrium dissociation constant (Kd) of 4200 nM.

B12: the dissociation constant Kd amounted to 1900 nM.

A further assay addresses T5, cynomolgus monkey FcγRIIa3 …. Described as above.
B1 came in with a Kd of 1900 nM.

B2 had a Kd of 2500 nM.

As for B3, the Kd came out at 5500 nM.

B4 showed a dissociation constant (Kd) of 6200 nM.

B5 returned a Kd of 3100 nM.

Consider B6, for which the affinity, expressed as Kd, was 6400 nM.

Consider B7, for which binding was put at a Kd of 2500 nM.

For B8, the Kd is 11000 nM.

In the case of B9, the Kd is 2000 nM.

In the case of B10, the equilibrium dissociation constant (Kd) stood at 5900 nM.

Molecule B11 registered a Kd of 1900 nM.

B12 registered an equilibrium dissociation constant (Kd) of 1300 nM.

The next assay addresses T6, human FcγRIIaH extracellular domain, …. The description is as above.
Consider B1, for which binding was characterised by a dissociation constant (Kd) of 570 nM.

Molecule B2 displayed a Kd of 1300 nM.

On to B3, for which the dissociation constant Kd is 2300 nM.

In turn, B4 registered an equilibrium dissociation constant (Kd) of 92 nM.

The molecule B5 showed a Kd of 44 nM.

Take B6: the dissociation constant (Kd) was 230 nM.

In turn, B7 registered an equilibrium dissociation constant (Kd) of 73 nM.

In turn, B8 gave a Kd of 510 nM.

Consider B9, for which the Kd was found to be 8100 nM.

In the case of B10, the Kd turned out to be 820 nM.

B11 returned a Kd of 980 nM.

On to B12, for which the equilibrium dissociation constant (Kd) came out at 350 nM.

For a further assay, the target named is T7, cynomolgus monkey FcγRIIa2 …. The assay is described as above.
B1 displayed a dissociation constant (Kd) of 630 nM.

B2: the Kd turned out to be 2500 nM.

For the molecule B3, binding was put at a Kd of 4000 nM.

For the molecule B4, the Kd amounted to 1900 nM.

In turn, B5 had an equilibrium dissociation constant (Kd) of 700 nM.

On to B6, for which the Kd came out at 2600 nM.

With B7, the dissociation constant (Kd) stood at 2300 nM.

As to B8, the Kd was determined as 3500 nM.

As for B9, the dissociation constant Kd is 800 nM.

Regarding B10, the dissociation constant (Kd) was 4200 nM.

As for B11, the Kd was 2200 nM.

With B12, binding was characterised by a dissociation constant (Kd) of 520 nM.
